Results taken from patent US20220195014A1.

Target: recombinant human NPR3 extracellular domain portion (amino acids Gly27-Ser482) fused to the Fc portion of mouse IgG2a (human; mouse) (UniProt P17342)
Assay: blocking ELISA, plate-coated hNPR3-mFc, competitor biotin-hANP, 1 µg/mL control antibody

Chain of UniProt P17342 (P17342 27-482 limits assumed): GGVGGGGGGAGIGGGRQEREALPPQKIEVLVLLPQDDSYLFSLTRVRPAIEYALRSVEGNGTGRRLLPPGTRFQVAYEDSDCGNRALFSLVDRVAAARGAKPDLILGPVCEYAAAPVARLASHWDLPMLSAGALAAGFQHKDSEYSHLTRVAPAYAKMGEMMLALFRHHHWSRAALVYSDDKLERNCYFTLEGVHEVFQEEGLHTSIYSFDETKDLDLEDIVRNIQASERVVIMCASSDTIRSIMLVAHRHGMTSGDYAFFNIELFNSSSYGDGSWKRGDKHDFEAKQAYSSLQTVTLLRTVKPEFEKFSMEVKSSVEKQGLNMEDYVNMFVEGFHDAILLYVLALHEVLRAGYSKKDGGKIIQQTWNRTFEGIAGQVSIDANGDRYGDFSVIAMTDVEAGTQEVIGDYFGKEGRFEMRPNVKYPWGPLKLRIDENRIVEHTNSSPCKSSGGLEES

percent blockade: 32%
Substance: non-binding human IgG1 isotype control antibody (blocking ELISA)
